From PMC9157509

Molecular target: AB variant of cytochrome cb562 (forms the disulfide-linked dimer (AB)2) (UniProt P0ABE7)
Assay: solution small-angle X-ray scattering

AB variant of cytochrome cb562 (forms the disulfide-linked dimer (AB)2) (from UniProt P0ABE7 23-128)
stoichiometry N: 2
